Measurements published in PMC8390317 (Experimental Animals, 2021).

Target: recombinant B7-H4 protein (Phe29 to Ala258) (Homo sapiens, UniProt Q7Z7D3)
Experiment: ELISA

recombinant B7-H4 protein (Phe29 to Ala258), sequence (Q7Z7D3 29-258): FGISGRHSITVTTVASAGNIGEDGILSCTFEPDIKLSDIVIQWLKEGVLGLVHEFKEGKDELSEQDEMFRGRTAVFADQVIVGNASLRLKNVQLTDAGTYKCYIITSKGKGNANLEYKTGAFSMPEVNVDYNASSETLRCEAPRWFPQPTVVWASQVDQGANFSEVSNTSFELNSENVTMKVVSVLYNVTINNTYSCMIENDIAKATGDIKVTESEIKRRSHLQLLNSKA

Binder | EC50 [nM]
anti-B7-H4 scFv S2 (scFv, V domains shown) VH: AVTLDESGGGLQTPGGGLSLVCKASGFTFSSYGMGWMRQVPGKGLEYVAVIDAGSGTWYATAVKGRATISRDNGQSTVRLQLNNLRAEDTATYYCAKSANAGAPDGAWIDAWGHGTEVIVSS VL: LTQPSSVSANLGGTVEITCSGGSGGYGWFQQKSPGSAPVTLIYNNNKRPSDIPSRFSGSKSGSTATLTITGVRAEDEAVYYCGGWDSIDSGIFGAGTTLTVL | ~22
anti-B7-H4 scFv S4 (scFv, V domains shown) VH: AVTLDESGGGLQTPGGALSLVCKASGFTFSSYGMGWMRQVPGKGLEYVAVIDAGSGTWYATAVKGRATISRDNGQSTVRLQLNNLRAEDTATYYCAKSANAGAPDGAWIDAWGHGTEVIVSS VL: LTQPSSVSANLGETVKITCSGGSYSYGWYQQKSPGSAPVTVIYDNNKRPSDIPSRFSGSKSGSTGTLTITGVQAEDEAIYYCGSRDSNTGYAAFGAGTTLTVL | ~33
